Measurements published in publication PMC3103431, “The four Zn fingers of MBNL1 provide a flexible platform for recognition of its RNA binding elements”.

Columns and labels:
MBNL1 (2-260) [1] = biological target: T1, MBNL1 (2-260) (Homo sapiens, UniProt Q9NR56 2-260); experiment: EMSA; 5 mM Mg2+; 100 mM NaCl, 21 mM Tris pH 7.5, 5 mM MgCl2, 0.1 mM EDTA, 2 mg/mL BSA, 0.1 mg/mL heparin, 0.5 mM BME, 5 mM DTT, 0.02% Triton X-100, 10% glycerol, 0.02 nM RNA, room temperature 30 min; conditions: protein: recombinant, tags: GST tag removed, label: 5' 32P
T1 sequence: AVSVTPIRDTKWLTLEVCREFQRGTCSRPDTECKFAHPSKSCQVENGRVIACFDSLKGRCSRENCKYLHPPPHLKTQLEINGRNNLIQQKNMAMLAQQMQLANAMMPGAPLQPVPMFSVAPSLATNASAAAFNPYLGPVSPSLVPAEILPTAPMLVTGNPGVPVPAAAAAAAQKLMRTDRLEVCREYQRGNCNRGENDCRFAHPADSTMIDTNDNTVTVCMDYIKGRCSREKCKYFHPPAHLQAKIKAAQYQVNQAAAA

MBNL1 (2-260) [2] = biological target: T1, MBNL1 (2-260); experiment: as above; conditions: protein: recombinant; tags: GST tag removed; label: 5' 32P; single-stranded
MBNL1 (2-260) [3] = biological target: T1, MBNL1 (2-260); experiment: EMSA; 5 mM Mg2+; smearing; 100 mM NaCl, 21 mM Tris pH 7.5, 5 mM MgCl2, 0.1 mM EDTA, 2 mg/mL BSA, 0.1 mg/mL heparin, 0.5 mM BME, 5 mM DTT, 0.02% Triton X-100, 10% glycerol, 0.02 nM RNA, room temperature 30 min; conditions: protein: recombinant; tags: GST tag removed; label: 5' 32P; single-stranded
MBNL1 (2-260) [4] = biological target: T1, MBNL1 (2-260); experiment: EMSA; 5 mM Mg2+; 100 mM NaCl, 21 mM Tris pH 7.5, 5 mM MgCl2, 0.1 mM EDTA, 2 mg/mL BSA, 0.1 mg/mL heparin, 0.5 mM BME, 5 mM DTT, 0.02% Triton X-100, 10% glycerol, 0.02 nM RNA, room temperature 30 min; conditions: protein: recombinant; tags: GST tag removed; label: 5' 32P; single-stranded; remark: listed apart in the source
MBNL1 (2-260) [5] = biological target: T1, MBNL1 (2-260); experiment: EMSA; 5 mM Mg2+; range for 2, 3 and 4 GC RNAs; 100 mM NaCl, 21 mM Tris pH 7.5, 5 mM MgCl2, 0.1 mM EDTA, 2 mg/mL BSA, 0.1 mg/mL heparin, 0.5 mM BME, 5 mM DTT, 0.02% Triton X-100, 10% glycerol, 0.02 nM RNA, room temperature 30 min; conditions: protein: recombinant; tags: GST tag removed; label: 5' 32P; single-stranded
MBNL1 (2-260) [6] = biological target: T1, MBNL1 (2-260); experiment: EMSA; 5 mM Mg2+; wild type level; 100 mM NaCl, 21 mM Tris pH 7.5, 5 mM MgCl2, 0.1 mM EDTA, 2 mg/mL BSA, 0.1 mg/mL heparin, 0.5 mM BME, 5 mM DTT, 0.02% Triton X-100, 10% glycerol, 0.02 nM RNA, room temperature 30 min; conditions: protein: recombinant; tags: GST tag removed; label: 5' 32P; single-stranded
MBNL1 (2-260) [7] = biological target: T1, MBNL1 (2-260); experiment: EMSA; 5 mM Mg2+; smearing; 100 mM NaCl, 21 mM Tris pH 7.5, 5 mM MgCl2, 0.1 mM EDTA, 2 mg/mL BSA, 0.1 mg/mL heparin, 0.5 mM BME, 5 mM DTT, 0.02% Triton X-100, 10% glycerol, 0.02 nM RNA, room temperature 30 min; conditions: protein: recombinant; tags: GST tag removed; label: 5' 32P; single-stranded; remark: listed apart in the source
MBNL1 (2-260) [8] = biological target: T1, MBNL1 (2-260); experiment: competition; vs 32P-2GC 0.02 nM, 33.3 nM MBNL1; 100 mM NaCl, 21 mM Tris pH 7.5, 5 mM MgCl2, 0.1 mM EDTA, 2 mg/mL BSA, 0.1 mg/mL heparin, 0.5 mM BME, 5 mM DTT, 0.02% Triton X-100, 10% glycerol, 0.02 nM RNA, room temperature 30 min; conditions: protein: recombinant; tags: GST tag removed; label: 5' 32P; single-stranded

UUGGCGUUUUUUUUUUUGGCGUU (ssRNA) [GGCG] was tested, and the binding signal (MBNL1 (2-260) [1]) was 40 fold weaker than 2GC.

In the case of UUUGCUUUUUUUUUUUUUGCUUU (ssRNA) [2GC], the Kd (MBNL1 (2-260) [2]) is reported as 11 nM.

UUCGCCUUUUUUUUUUUCGCCUU (ssRNA) [CGCC] showed a Kd (MBNL1 (2-260) [2]) of 7 nM.

UCCUUUUUUUUUCCUGCUUUUUUUUUCCU (ssRNA) [1GC#2] was tested, and the binding signal (MBNL1 (2-260) [3]) was ~5 fold higher Kd than the 2-4 GC 29-nt RNAs.

Work on CCCGCCCCCCCCCCCCCCGCCCC (ssRNA) [C] yielded a Kd (MBNL1 (2-260) [2]) of 111 nM.

In the case of AAUGCUAAAAAAAAAAAUGCUAA (ssRNA) [A4], the binding signal (MBNL1 (2-260) [4]) is reported as over 10 fold weaker than 2GC.

UGCUUUUUUUUUGCUGCUUUUUUUUUGCU (ssRNA) [4GC] gave a Kd (MBNL1 (2-260) [5]) of 3.16 nM.

Work on UUAGCAUUUUUUUUUUUAGCAUU (ssRNA) [AGCA] yielded a binding signal (MBNL1 (2-260) [1]; single-stranded) of 5 fold weaker than 2GC.

CCUGCUCCCCCCCCCCCUGCUCC (ssRNA) [C4]: binds (MBNL1 (2-260) [6]).

Work on UUUGCUUUUUUUUUUUUUUUUUU (ssRNA) [1GC] yielded a Kd (MBNL1 (2-260) [7]) of 45 nM and a binding signal (MBNL1 (2-260) [8]) of 15 fold weaker than 2GC.
